Test results as given in article PMC6579771.

Target: S2-AAL, monovalent form of Aleuria aurantia lectin (Aleuria aurantia)
Assay: microfluidic displacement assay with fluorescence detection; S2-AAL immobilised on the PDMS/glass microchannel (APTES, glutaraldehyde), blocked with BSA; labeled lactoferrin 0.15 mg/ml in PBS perfused, washed with PBS; then fucose in PBS or PBS alone at 0.1 ul/min; fluorescence at the …

Human lactoferrin isolated from breast milk, labeled with DyLight 488 (natural protein)
% of initial fluorescence intensity left after 10 min perfusion with PBS only: 99%
